How the values were obtained:
recombinant LILRB2 ECD [1] = molecular target: T1, recombinant LILRB2 ECD (human, UniProt Q8N423 22-460); test: ELISA, LILRB2 ECD binding to HLA-G-Fc
T1 construct: also called biotinylated LILRB2 ECD
How it was run: (§1)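 Plates coated with 2 ug/mL B2M-HLA-G–mouse IgG2a-Fc. Antibodies (final 100 nM to 0.1 nM) premixed 1 h at room temperature with LILRB ECD/avidin-HRP, then applied to the HLA-G plate for 15 min. Residual LILRB binding read by TMB development.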

[2] = molecular target: LILRB1 on transiently transfected Expi293 cells (human) (UniProt Q8NHL6); test: flow cytometry, transfected Expi293 cells
LILRB1 on transiently transfected Expi293 cells (human), sequence (Q8NHL6 24-650 limits assumed): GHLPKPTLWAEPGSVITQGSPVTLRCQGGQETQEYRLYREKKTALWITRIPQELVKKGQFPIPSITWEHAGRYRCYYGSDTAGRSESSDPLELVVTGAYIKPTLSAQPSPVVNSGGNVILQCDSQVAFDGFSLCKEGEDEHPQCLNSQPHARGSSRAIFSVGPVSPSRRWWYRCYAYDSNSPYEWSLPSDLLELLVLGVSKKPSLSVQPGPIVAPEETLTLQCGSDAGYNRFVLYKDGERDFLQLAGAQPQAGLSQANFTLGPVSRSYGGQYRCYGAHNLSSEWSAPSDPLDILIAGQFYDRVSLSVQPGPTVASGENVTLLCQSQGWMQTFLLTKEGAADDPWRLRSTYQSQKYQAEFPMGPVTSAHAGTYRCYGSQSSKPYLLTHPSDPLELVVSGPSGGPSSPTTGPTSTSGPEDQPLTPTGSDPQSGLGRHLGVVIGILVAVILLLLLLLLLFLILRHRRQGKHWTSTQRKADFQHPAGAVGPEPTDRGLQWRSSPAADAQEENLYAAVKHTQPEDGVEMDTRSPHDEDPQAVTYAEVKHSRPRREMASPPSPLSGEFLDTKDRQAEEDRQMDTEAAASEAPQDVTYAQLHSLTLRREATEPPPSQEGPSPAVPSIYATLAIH

[3] = molecular target: LILRB2 on transiently transfected Expi293 cells (human) (UniProt Q8N423); test: flow cytometry, transfected Expi293 cells
LILRB2 on transiently transfected Expi293 cells (human), sequence (Q8N423 22-597 limits assumed): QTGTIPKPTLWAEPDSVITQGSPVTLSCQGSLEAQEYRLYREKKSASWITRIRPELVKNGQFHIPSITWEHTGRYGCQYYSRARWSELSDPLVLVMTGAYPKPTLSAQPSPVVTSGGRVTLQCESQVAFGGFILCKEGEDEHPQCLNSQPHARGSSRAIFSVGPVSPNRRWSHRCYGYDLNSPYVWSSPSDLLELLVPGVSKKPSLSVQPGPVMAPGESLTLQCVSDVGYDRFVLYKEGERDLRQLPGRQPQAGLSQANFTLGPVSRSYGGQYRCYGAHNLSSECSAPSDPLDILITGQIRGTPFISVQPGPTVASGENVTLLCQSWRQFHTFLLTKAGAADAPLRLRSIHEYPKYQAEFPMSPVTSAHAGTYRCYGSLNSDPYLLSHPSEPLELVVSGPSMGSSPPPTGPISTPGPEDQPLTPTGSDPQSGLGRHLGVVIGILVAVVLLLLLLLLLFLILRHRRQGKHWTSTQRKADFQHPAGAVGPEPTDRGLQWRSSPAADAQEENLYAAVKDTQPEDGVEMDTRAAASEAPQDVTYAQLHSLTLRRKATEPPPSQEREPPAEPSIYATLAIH

[4] = molecular target: LILRA1 on transiently transfected Expi293 cells (human) (UniProt O75019); test: flow cytometry, transfected Expi293 cells
LILRA1 on transiently transfected Expi293 cells (human), sequence (O75019 17-489 limits assumed): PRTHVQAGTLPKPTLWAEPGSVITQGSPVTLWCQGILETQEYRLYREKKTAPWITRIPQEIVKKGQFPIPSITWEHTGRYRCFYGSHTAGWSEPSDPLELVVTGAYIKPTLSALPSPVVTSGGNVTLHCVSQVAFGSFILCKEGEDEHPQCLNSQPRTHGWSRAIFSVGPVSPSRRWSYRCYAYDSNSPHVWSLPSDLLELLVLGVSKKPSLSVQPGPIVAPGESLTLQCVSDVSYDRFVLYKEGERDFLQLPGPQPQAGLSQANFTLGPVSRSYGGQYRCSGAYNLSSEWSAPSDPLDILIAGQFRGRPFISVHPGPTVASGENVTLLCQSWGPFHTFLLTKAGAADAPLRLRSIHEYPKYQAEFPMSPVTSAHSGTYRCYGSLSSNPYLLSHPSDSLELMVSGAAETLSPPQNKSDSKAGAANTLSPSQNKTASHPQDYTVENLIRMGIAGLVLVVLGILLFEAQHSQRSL

[5] = molecular target: LILRA3 on transiently transfected Expi293 cells (human) (UniProt Q8N6C8); test: flow cytometry, transfected Expi293 cells
LILRA3 on transiently transfected Expi293 cells (human), sequence (Q8N6C8 24-439 limits assumed): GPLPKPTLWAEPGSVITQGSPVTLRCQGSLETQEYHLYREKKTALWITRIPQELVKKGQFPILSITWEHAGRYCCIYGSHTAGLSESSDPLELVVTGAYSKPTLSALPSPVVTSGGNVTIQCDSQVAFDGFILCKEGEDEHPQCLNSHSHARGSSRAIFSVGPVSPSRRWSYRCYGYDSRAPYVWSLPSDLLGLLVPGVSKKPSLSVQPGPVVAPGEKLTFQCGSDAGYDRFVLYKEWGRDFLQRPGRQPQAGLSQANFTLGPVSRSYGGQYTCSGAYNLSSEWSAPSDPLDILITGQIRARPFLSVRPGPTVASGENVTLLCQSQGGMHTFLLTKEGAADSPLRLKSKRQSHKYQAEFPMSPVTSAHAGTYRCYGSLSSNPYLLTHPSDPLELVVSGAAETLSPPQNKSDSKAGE

[6] = molecular target: LILRB2 on Jurkat reporter cells (ILT4/HLA-G Blockade Bioassay Kit, Promega) (human) (UniProt Q8N423); test: cell-based or functional assay
LILRB2 on Jurkat reporter cells (ILT4/HLA-G Blockade Bioassay Kit, Promega) (human), sequence (Q8N423 22-597 limits assumed): as the sequence (Q8N423 22-597 limits assumed) above

recombinant LILRB1 ECD [7] = molecular target: T2, recombinant LILRB1 ECD (human, UniProt Q8NHL6 24-461); test: ELISA, LILRB1 ECD binding to HLA-G-Fc
T2 construct: also called biotinylated LILRB1 ECD
T2 sequence (Q8NHL6 24-461 limits assumed): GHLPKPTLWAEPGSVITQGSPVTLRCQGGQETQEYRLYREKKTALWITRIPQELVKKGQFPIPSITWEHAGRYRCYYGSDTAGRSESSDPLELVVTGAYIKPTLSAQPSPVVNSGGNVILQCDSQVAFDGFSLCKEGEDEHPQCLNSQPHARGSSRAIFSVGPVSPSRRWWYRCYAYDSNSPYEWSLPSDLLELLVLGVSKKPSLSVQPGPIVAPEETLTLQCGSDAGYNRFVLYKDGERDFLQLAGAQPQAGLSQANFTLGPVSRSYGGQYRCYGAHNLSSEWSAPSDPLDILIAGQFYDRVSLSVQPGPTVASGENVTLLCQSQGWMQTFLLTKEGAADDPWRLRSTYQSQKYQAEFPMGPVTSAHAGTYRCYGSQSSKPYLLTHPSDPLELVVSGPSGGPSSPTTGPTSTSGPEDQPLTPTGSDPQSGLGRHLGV
How it was run: as §1

recombinant LILRA3 [8] = molecular target: T3, recombinant LILRA3 (human, UniProt Q8N6C8 24-439); test: BLI, IgG on AHC sensor, ECD in solution
T3 construct: whole entry named; also called LILRA3 ECD; LILA3
T3 sequence (Q8N6C8 24-439 limits assumed): as the sequence (Q8N6C8 24-439 limits assumed) above
Method: (§2) Briefly, IgGs were captured on anti-human capture (AHC) biosensors (Sartorius). […] Subsequently, the sensors were dipped into 1× Kinetics Buffer to measure the dissociation over 420 s. All sensorgrams were double referenced against 1× Kinetics Buffer and unloaded […] sensors to subtract sensor drifts and potential reference binding of the analytes. The affinities were determined by applying a 1:1 binding model.

recombinant LILRB1 ECD [9] = molecular target: T2, recombinant LILRB1 ECD; test: BLI, IgG on AHC sensor, ECD in solution
Method: as §2

recombinant LILRB2 ECD [10] = molecular target: T1, recombinant LILRB2 ECD; test: BLI, IgG on AHC sensor, ECD in solution
Method: as §2

recombinant LILRA1 ECD [11] = molecular target: T4, recombinant LILRA1 ECD (human, UniProt O75019 17-461); test: BLI, IgG on AHC sensor, ECD in solution
T4 construct: whole canonical entry named; also called LILA1
T4 sequence (O75019 17-461 limits assumed): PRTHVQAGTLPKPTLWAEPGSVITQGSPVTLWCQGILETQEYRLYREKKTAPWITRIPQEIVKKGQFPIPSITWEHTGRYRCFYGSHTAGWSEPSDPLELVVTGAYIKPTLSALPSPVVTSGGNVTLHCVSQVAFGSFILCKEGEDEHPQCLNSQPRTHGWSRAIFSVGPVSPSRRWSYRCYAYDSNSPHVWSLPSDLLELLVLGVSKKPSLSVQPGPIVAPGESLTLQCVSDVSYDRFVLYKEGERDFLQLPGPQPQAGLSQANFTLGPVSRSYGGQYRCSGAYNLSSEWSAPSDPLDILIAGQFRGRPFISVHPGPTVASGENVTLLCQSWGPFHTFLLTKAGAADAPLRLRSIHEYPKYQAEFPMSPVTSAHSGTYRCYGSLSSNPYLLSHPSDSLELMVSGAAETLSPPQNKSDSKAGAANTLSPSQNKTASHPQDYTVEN
Method: as §2

[12] = molecular target: LILRB2 on primary monocytes (human) (UniProt Q8N423); test: flow cytometry, primary monocytes
LILRB2 on primary monocytes (human), sequence (Q8N423 22-597 limits assumed): as the sequence (Q8N423 22-597 limits assumed) above

[13] = molecular target: LILRB2 on transiently transfected Expi293 cells (human, UniProt Q8N423 22-597); test: flow cytometry, transfected Expi293 cells
LILRB2 on transiently transfected Expi293 cells, sequence (Q8N423 22-597 limits assumed): as above
Method: (§3) Non-transfected Expi293 cells were used as negative control. Cells were harvested and labeled with CellTraceViolet for multiplexing. […] Subsequently, cells were washed and stained with a secondary anti-human IgG labeled with AF647 for 30 minutes at 4° C. in the dark. Cells were washed again and mixed with 7-AAD viability dye before flow acquisition to test for surface binding.

[14] = molecular target: LILRB1 on transiently transfected Expi293 cells (human, UniProt Q8NHL6 24-650); test: flow cytometry, transfected Expi293 cells
LILRB1 on transiently transfected Expi293 cells, sequence (Q8NHL6 24-650 limits assumed): as the sequence (Q8NHL6 24-650 limits assumed) above
Method: as §3

[15] = molecular target: T5, LILRA2 on transiently transfected Expi293 cells (human, UniProt Q8N149 24-483); test: flow cytometry, transfected Expi293 cells
T5 construct: whole, on cells
T5 sequence (Q8N149 24-483): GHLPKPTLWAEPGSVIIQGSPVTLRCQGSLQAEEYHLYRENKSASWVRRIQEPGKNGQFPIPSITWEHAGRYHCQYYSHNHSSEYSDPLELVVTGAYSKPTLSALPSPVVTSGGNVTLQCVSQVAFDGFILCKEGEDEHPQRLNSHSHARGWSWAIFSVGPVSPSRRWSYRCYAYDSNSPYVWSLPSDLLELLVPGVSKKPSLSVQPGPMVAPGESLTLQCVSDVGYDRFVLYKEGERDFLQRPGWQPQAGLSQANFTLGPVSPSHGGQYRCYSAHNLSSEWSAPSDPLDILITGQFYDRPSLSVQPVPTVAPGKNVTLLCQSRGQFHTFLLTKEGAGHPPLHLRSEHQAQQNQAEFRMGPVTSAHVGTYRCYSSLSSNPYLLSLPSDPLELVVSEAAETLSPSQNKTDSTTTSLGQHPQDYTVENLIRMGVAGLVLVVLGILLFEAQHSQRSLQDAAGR
Method: as §3

recombinant LILRA3 [16] = molecular target: T3, recombinant LILRA3; test: BLI, IgG on AHC sensor, ECD in solution; biochemical assay, monovalent KD on recombinant protein (Table 2): weak off-target binding, 575 nM
Method: as §2

recombinant LILRA1 ECD [17] = molecular target: T4, recombinant LILRA1 ECD; test: BLI, IgG on AHC sensor, ECD in solution; biochemical assay, monovalent KD on recombinant protein (Table 2): weak off-target binding, 962 nM
Method: as §2

T1 sequence (Q8N423 22-460 limits assumed): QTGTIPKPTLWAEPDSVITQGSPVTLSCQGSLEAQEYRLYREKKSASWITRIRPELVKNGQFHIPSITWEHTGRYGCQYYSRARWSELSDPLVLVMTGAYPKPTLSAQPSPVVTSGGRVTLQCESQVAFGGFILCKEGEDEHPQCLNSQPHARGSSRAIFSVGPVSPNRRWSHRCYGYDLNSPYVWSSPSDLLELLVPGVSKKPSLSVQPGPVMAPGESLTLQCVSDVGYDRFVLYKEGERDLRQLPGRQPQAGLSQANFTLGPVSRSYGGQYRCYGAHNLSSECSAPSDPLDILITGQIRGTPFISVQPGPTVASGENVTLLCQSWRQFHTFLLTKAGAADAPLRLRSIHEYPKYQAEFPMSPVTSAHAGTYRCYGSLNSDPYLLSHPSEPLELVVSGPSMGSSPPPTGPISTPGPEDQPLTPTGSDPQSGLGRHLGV

Binder	IC50 (recombinant LILRB2 ECD [1]) [nM]	EC50 [2] [nM]	EC50 [3] [nM]	EC50 [4] [nM]	EC50 [5] [nM]	luminescence of LILRB2-expressing Jurkat reporter cells with HLA-G expressing APC/CHO-K1 cells (ILT4/HLA-G Blockade Bioassay) [6] [nM]	IC50 (recombinant LILRB1 ECD [7]) [nM]	Kd (recombinant LILRA3 [8]) [nM]	Kd (recombinant LILRB1 ECD [9]) [nM]	Kd (recombinant LILRB2 ECD [10]) [nM]	Kd (recombinant LILRA1 ECD [11]) [nM]	EC50 [12] [nM]	EC50 [13] [nM]	EC50 [14] [nM]	binding result [15]	Kd (recombinant LILRA3 [16]) [nM]	Kd (recombinant LILRA1 ECD [17]) [nM]
Ref062 [NGM707, cross-specific] (antibody, from another filing, V domains shown) VH: QVQLVQSGAEVKKPGASVKVSCKASGYTFTDYYINWVRQAPGQGLEWMGNVNPNDGGTTYNQKFKGRVTMTTDTSTSTAYMELRSLRSDDTAVYYCARREIYFYGTIYYYAMDYWGQGTLVTVSS VL: DIQLTQSPSFLSASVGDRVTITCRASESVDYYGNSFMYWYQQKPGKAPKLLIYFASNLESGVPSRFSGSGSGTEFTLTISSLQPEDFATYYCQQNNEDPWTFGGGTKVEIKR	4.7	9.1	17.3	3.7	7.8	0.9	5.7	1.4	0.5	0.4	0.6	–	–	–	–	–	–
Ref047 [MK-4830, LILRB2 specific] (antibody, from another filing, V domains shown) VH: EVQLQQWGAGLLKPSETLSLTCAVYGGSFSGYYWSWIRQPPGKGLEWIGEINHAGSTNYNPSLKSRVTISVDTSKNQFSLKLSSVTAADTAVYYCARLPTRWVTTRYFDLWGRGTLVTVSS VL: ESVLTQPPSVSGAPGQRVTISCTGSSSNIGAGYDVHWYQQLPGTAPKLLIYGDSNRPSGVPDRFSVSKSGASASLAITGLQAEDEADYYCQSFDNSLSAYVFGGGTQLTVL	3.1	–	1.7	–	–	–	–	–	–	3.4	–	1	–	–	–	–	–
A-045 (antibody, V domains shown, tested as IgG; HC of A-010 and LC of A-036) VH: QVQLVQSGAEVKKPGSSVKVSCKASGGTFQSQAFAWVRQAPGQGLEWMGSIIPGFSTANYAQKFQGRVTITADESTSTAYMELSSLRSEDTAVYYCAKDLGTYSSGWPYYYGMDVWGQGTTVTVSS VL: SYELTQPPSVSVSPGQTASITCSGDKLGDKYASWYQQKPGQSPVLVIYQDSKRPSGIPERFSGSNSGNTATLTISGTQAEDEADYYCQLTHLTIYVFGGGTKLTVL	3.5	–	–	–	–	–	2.1	–	2.3	2.8	–	–	1.3	1.5	no binding	575	962
